From article PMC6774794 (Nature structural & molecular biology, 2019)

T1: dynein-2 intermediate chain WDR60 (human, UniProt Q8WVS4)
T1 sequence: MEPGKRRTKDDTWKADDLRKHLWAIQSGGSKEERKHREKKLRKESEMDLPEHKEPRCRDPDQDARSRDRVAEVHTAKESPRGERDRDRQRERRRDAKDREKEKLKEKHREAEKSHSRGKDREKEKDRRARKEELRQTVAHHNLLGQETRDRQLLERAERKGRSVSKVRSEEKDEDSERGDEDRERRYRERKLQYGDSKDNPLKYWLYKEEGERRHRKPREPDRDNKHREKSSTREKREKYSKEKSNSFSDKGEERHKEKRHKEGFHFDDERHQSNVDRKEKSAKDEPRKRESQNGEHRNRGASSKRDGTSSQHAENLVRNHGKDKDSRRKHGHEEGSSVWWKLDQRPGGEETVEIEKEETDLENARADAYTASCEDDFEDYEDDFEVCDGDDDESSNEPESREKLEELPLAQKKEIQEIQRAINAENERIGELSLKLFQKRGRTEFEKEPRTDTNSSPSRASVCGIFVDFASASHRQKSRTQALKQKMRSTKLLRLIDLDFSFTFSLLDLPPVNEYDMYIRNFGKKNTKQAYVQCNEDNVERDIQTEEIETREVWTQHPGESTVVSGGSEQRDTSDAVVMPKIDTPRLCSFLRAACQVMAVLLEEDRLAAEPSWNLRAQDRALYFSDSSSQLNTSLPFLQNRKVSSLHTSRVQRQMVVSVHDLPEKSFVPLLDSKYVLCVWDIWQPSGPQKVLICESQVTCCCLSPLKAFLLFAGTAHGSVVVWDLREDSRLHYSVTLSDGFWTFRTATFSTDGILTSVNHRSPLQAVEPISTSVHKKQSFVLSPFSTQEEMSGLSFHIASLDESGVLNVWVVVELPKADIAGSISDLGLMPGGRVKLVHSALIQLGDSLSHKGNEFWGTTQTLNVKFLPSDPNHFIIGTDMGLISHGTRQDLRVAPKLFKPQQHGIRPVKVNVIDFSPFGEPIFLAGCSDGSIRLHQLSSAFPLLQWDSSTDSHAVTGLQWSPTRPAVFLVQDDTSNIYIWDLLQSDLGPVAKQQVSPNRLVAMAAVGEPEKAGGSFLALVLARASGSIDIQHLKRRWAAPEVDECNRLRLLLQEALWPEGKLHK

B1: dynein-2 intermediate chain WDR34 (natural protein)
chain: MATRAQPGPLSQAGSAGVAALATVGVASGPGPGRPGPLQDETLGVASVPSQWRAVQGIRWETKSCQTASIATASASAQARNHVDAQVQTEAPVPVSVQPPSQYDIPRLAAFLRRVEAMVIRELNKNWQSHAFDGFEVNWTEQQQMVSCLYTLGYPPAQAQGLHVTSISWNSTGSVVACAYGRLDHGDWSTLKSFVCAWNLDRRDLRPQQPSAVVEVPSAVLCLAFHPTQPSHVAGGLYSGEVLVWDLSRLEDPLLWRTGLTDDTHTDPVSQVVWLPEPGHSHRFQVLSVATDGKVLLWQGIGVGQLQLTEGFALVMQQLPRSTKLKKHPRGETEVGATAVAFSSFDPRLFILGTEGGFPLKCSLAAGEAALTRMPSSVPLRAPAQFTFSPHGGPIYSVSCSPFHRNLFLSAGTDGHVHLYSMLQAPPLTSLQLSLKYLFAVRWSPVRPLVFAAASGKGDVQLFDLQKSSQKPTVLIKQTQDESPVYCLEFNSQQTQLLAAGDAQGTVKVWQLSTEFTEQGPREAEDLDCLAAEVAA

Columns and labels:
[1] = target: dynein light chain LC8 (DYNLL1/2) (human) (UniProt P63167); assay: cryo-EM structure
[2] = target: T1, dynein-2 intermediate chain WDR60; assay: cryo-EM structure

Row | stoichiometry N [1] | binding result [2] | Molecule
1 | 2 |  | dynein light chain LC8 (DYNLL1/2) (from UniProt P63167) (natural protein)
2 |  | binds | B1
